Read-outs that look alike come from different tables or passages of the source.

The Kd is a measure of binding affinity in units of concentration. High values mean weaker binding, low ones tighter binding.

One data set has as its target human Dicer (human, UniProt Q9UPY3 1-1922). Briefly: SEC. On the technique in general: SEC sorts molecules by how far they enter the pores of the column.
Data set [1] has as its target Dicer;TRBPpm (phospho-mimic) (human;human, UniProt Q9UPY3;Q15633 1-1922;1-366, |S142D;S152D;S283D;S286D). The experiment in a line: filter binding.
In another data set the target is Dicer;TRBP (human;human, UniProt Q9UPY3;Q15633 1-1922;1-366, |). The experiment in a line: filter binding.
In data set [2] the target is T1, TRBP (human, UniProt Q15633 1-366).
T1 sequence: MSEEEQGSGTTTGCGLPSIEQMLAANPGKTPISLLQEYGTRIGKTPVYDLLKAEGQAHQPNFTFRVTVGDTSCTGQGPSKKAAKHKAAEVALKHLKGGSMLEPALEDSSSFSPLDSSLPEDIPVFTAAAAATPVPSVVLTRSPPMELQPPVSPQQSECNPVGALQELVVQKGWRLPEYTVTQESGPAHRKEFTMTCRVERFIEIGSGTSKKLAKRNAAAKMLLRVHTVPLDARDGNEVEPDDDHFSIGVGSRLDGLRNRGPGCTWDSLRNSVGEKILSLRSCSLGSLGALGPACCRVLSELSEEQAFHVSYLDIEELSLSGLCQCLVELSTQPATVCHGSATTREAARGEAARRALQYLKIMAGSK
Briefly: filter binding.

The target in data set [3] is T2, TRBPpm (phospho-mimic) (human, UniProt Q15633 1-366, S142D;S152D;S283D;S286D).
T2 sequence: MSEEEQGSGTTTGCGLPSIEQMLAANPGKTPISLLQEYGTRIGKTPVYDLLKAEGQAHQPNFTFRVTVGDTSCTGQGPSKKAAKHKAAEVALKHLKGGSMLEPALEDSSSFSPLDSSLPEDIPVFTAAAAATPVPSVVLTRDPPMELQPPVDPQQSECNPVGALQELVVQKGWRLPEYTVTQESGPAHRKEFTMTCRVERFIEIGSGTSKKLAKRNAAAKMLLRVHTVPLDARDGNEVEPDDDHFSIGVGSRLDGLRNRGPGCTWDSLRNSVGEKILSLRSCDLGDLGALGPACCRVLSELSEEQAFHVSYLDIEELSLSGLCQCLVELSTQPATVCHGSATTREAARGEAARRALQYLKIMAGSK
Briefly: filter binding.

For the next data set, the target named is Dicer;TRBPRBD3 (human;human, UniProt Q9UPY3;Q15633 1-1922;293-366, |). Briefly: filter binding.
A further data set has as its target Dicer (human, UniProt Q9UPY3 1-1922). Briefly: filter binding.
The target in data set [4] is T1, TRBP. The experiment in a line: filter binding. This is another data set of the same source.
For data set [5], the target named is T2, TRBPpm (phospho-mimic). Briefly: filter binding. This is another data set of the same source.

Sequence of Dicer (Q9UPY3 whole entry): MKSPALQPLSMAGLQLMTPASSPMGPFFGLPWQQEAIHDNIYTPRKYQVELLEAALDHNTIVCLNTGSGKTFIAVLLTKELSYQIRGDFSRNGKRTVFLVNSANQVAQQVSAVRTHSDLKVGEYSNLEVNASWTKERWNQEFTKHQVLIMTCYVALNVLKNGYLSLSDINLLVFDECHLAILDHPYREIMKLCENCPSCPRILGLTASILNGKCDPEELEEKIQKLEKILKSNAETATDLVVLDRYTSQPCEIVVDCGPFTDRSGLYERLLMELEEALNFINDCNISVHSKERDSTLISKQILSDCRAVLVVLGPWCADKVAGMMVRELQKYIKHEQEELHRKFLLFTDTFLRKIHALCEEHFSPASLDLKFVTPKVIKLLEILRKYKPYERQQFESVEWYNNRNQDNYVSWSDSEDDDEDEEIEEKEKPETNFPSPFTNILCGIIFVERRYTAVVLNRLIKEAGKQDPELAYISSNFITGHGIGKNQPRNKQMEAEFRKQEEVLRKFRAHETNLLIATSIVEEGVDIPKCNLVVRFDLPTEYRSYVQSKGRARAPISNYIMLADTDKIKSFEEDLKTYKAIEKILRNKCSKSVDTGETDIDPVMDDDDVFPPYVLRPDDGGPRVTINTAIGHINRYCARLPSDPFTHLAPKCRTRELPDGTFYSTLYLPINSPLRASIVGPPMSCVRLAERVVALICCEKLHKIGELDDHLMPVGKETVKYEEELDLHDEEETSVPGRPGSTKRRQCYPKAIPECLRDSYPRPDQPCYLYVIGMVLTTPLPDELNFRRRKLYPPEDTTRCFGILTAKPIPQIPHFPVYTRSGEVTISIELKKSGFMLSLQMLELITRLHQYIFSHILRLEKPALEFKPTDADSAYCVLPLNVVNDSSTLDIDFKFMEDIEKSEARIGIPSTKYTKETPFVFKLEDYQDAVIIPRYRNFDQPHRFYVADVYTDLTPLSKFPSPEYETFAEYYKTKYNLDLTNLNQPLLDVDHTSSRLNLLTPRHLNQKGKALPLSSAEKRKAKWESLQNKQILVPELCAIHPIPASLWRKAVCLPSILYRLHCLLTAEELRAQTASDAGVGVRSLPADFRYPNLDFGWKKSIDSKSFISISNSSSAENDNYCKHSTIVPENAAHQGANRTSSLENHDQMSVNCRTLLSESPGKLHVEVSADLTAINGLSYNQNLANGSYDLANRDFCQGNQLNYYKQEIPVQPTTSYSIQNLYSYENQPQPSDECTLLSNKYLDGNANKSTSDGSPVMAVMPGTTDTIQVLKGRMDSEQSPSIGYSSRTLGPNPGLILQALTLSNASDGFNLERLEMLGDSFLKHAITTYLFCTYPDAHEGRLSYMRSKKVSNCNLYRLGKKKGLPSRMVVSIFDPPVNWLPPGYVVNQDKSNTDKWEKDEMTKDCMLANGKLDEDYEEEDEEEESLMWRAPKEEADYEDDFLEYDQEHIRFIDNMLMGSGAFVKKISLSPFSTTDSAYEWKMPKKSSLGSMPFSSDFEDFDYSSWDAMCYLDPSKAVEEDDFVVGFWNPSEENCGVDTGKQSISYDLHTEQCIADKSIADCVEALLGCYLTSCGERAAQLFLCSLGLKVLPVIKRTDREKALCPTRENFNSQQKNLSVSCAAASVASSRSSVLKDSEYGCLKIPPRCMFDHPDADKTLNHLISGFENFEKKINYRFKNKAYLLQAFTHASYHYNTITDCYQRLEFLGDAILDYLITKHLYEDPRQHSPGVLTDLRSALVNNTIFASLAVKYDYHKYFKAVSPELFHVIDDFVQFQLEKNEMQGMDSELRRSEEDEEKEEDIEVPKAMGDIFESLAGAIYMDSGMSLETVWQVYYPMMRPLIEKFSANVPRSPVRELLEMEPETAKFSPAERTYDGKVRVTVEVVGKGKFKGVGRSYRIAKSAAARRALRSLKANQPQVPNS
Sequence of human Dicer (Q9UPY3 whole entry): as above
Sequence of Dicer;TRBP (Q9UPY3 whole entry, one chain of several): as the sequence (Q9UPY3 whole entry) above
Sequence of Dicer;TRBPRBD3 (Q9UPY3 whole entry, chain 1 of 2, one chain of several): as the sequence (Q9UPY3 whole entry) above
Sequence of Dicer;TRBPpm (phospho-mimic) (Q9UPY3 whole entry, chain 1 of 2, one chain of several): as the sequence (Q9UPY3 whole entry) above

B1: HIV trans-activating response (TAR) RNA binding protein (TRBP) (natural protein, human, UniProt Q15633 1-366, looked up)
chain: MSEEEQGSGTTTGCGLPSIEQMLAANPGKTPISLLQEYGTRIGKTPVYDLLKAEGQAHQPNFTFRVTVGDTSCTGQGPSKKAAKHKAAEVALKHLKGGSMLEPALEDSSSFSPLDSSLPEDIPVFTAAAAATPVPSVVLTRSPPMELQPPVSPQQSECNPVGALQELVVQKGWRLPEYTVTQESGPAHRKEFTMTCRVERFIEIGSGTSKKLAKRNAAAKMLLRVHTVPLDARDGNEVEPDDDHFSIGVGSRLDGLRNRGPGCTWDSLRNSVGEKILSLRSCSLGSLGALGPACCRVLSELSEEQAFHVSYLDIEELSLSGLCQCLVELSTQPATVCHGSATTREAARGEAARRALQYLKIMAGSK
Turning to B1, in the data set with human Dicer, the binding result is reported as “binds”.

B2: phospho-mimic mutant of TRBP (TRBPpm) (natural protein, human, UniProt Q15633 1-366, looked up)
chain: MSEEEQGSGTTTGCGLPSIEQMLAANPGKTPISLLQEYGTRIGKTPVYDLLKAEGQAHQPNFTFRVTVGDTSCTGQGPSKKAAKHKAAEVALKHLKGGSMLEPALEDSSSFSPLDSSLPEDIPVFTAAAAATPVPSVVLTRDPPMELQPPVDPQQSECNPVGALQELVVQKGWRLPEYTVTQESGPAHRKEFTMTCRVERFIEIGSGTSKKLAKRNAAAKMLLRVHTVPLDARDGNEVEPDDDHFSIGVGSRLDGLRNRGPGCTWDSLRNSVGEKILSLRSCDLGDLGALGPACCRVLSELSEEQAFHVSYLDIEELSLSGLCQCLVELSTQPATVCHGSATTREAARGEAARRALQYLKIMAGSK
As for B2, in the data set with human Dicer, the binding result is “binds”.

B3: pre-let-7a (structured_RNA)
RNA: UGAGGUAGUAGGUUGUAUAGUUUUAGGGUCACACCCACCACUGGGAGAUAACUAUACAAUCUACUGUCUUACC
B3: the equilibrium dissociation constant (Kd) in data set [1] is < 0.04 nM; with Dicer;TRBP, < 0.05 nM; with TRBP [2], 1.3 ± 0.2 nM; with TRBPpm (phospho-mimic) [3] it was 2.9 ± 0.6 nM; with Dicer;TRBPRBD3, 1.3 ± 0.1 nM; with Dicer, 1.8 ± 0.4 nM.

B4: 35-bp duplex (pre-siRNA) (dsRNA)
RNA 1: UGAGGUAGUAGGUUGUAUAGUUUGAAAGUUCACGAUU
RNA 2: UCGUGAACUUUCAAACUAUACAACCUACUACCUCAAA
In the case of B4, the Kd with Dicer;TRBP was < 0.051 nM; in the data set with Dicer;TRBPRBD3 it was 3 ± 0.4 nM; with Dicer, 3.4 ± 0.5 nM; with TRBP [4], < 0.09 nM; in the data set with TRBPpm (phospho-mimic) [5], < 0.1 nM.

The values above are taken from paper PMC3005596 (Journal of molecular biology, 2010).
